From patent US20040157214A1 come the findings set out here.

The test has as its target bovine thyroglobulin (bovine) (UniProt P01267). Description: phage ELISA, 200 ug/ml thyroglobulin. (In an ELISA, binding on a coated surface is turned into a signal by an enzyme label.)

Chain of pCAT-3 non-recombinant vector phagemid (P03661 19-424): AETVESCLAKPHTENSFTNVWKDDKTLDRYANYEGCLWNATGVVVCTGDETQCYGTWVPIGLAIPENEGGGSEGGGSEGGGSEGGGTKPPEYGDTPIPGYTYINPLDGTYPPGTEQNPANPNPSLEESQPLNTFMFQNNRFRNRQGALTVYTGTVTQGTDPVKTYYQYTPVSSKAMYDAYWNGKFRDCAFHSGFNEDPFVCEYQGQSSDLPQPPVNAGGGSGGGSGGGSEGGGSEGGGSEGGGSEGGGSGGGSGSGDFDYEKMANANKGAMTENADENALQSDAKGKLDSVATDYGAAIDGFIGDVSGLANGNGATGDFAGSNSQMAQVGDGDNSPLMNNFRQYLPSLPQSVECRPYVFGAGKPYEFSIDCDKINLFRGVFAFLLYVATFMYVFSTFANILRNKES
Chain of bovine thyroglobulin (bovine) (P01267 20-2769 limits assumed): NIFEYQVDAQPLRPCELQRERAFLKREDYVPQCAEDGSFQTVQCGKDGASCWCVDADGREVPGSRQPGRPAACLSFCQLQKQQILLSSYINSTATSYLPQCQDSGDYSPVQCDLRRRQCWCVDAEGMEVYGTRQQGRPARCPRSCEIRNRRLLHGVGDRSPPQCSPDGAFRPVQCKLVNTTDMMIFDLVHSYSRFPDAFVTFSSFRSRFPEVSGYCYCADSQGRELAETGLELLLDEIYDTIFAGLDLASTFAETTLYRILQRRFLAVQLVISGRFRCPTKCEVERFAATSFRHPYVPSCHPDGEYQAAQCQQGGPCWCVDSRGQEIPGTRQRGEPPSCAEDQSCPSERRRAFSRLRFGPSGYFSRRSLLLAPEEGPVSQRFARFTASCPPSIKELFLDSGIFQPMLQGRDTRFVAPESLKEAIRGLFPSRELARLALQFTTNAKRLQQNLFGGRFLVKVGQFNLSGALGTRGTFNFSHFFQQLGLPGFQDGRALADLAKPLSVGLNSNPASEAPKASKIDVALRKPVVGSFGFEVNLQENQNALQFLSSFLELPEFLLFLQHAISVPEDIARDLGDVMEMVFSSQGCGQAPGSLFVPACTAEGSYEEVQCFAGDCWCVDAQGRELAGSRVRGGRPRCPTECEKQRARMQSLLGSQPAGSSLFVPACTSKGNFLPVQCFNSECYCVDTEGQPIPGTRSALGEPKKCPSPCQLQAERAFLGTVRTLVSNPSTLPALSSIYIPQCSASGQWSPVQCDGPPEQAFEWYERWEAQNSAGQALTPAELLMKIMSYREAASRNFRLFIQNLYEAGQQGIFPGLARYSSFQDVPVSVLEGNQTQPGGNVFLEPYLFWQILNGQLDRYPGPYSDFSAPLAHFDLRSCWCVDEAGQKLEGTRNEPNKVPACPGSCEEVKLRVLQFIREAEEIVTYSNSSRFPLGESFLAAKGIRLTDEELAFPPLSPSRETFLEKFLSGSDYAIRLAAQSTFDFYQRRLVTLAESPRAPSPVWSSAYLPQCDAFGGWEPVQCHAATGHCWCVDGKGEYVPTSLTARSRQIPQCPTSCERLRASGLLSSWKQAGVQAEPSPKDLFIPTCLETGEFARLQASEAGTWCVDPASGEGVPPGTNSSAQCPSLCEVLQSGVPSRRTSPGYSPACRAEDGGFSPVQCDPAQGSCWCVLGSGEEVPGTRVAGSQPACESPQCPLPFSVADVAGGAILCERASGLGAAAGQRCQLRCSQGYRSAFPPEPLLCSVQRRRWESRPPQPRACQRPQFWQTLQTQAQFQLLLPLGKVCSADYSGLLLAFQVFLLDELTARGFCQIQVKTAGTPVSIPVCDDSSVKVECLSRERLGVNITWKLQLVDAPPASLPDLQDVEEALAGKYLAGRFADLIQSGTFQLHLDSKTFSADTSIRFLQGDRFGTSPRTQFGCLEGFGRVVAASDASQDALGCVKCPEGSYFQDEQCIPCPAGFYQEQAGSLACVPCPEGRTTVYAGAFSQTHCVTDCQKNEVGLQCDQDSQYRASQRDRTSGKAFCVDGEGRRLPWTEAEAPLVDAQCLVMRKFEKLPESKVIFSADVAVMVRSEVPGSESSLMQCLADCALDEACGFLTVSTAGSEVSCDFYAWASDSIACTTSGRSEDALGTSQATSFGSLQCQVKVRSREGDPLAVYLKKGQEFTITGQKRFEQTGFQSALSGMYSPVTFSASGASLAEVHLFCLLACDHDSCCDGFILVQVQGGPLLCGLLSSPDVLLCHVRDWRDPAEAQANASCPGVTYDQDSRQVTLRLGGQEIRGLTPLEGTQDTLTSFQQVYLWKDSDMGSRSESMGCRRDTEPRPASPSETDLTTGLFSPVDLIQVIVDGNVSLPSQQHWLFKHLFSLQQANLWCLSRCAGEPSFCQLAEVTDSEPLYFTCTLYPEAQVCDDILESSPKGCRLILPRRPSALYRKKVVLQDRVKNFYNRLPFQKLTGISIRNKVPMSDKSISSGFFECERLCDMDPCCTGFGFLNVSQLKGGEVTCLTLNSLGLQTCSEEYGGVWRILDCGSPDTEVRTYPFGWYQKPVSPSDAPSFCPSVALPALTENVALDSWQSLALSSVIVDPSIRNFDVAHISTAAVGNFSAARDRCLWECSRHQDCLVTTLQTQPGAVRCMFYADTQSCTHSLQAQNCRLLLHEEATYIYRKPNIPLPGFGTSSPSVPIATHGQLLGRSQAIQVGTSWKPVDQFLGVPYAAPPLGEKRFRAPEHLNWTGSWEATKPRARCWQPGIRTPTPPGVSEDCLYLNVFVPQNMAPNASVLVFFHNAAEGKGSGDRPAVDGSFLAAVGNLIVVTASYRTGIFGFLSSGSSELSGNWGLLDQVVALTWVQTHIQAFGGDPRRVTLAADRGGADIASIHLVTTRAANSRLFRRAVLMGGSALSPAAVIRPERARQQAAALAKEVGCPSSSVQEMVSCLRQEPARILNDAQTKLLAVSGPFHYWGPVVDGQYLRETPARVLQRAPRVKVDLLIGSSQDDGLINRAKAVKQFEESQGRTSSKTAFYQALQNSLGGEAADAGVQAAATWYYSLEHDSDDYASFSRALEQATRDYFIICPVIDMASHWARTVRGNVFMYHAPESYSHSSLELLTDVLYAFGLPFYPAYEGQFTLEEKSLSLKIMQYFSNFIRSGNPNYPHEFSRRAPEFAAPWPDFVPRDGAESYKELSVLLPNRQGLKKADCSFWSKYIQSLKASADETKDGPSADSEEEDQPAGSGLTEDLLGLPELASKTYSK

On to “pCAT-3 non-recombinant vector phagemid (from UniProt P03661 19-424)”, for which the ELISA O.D. amounted to 0.07 O.D.
